We go through two molecules from patent US20170183396A1 (published 2017).

Usually Kd stands for the constant that tells how readily two partners part at equilibrium.

The target of experiment [1] is ZEBOV GP (Zaire ebolavirus) (UniProt Q05320). In words: affinity for recombinant ZEBOV GP; method not described.
Another experiment deals with T1, ZEBOV GP (Zaire ebolavirus, UniProt Q05320 33-650).
T1 sequence: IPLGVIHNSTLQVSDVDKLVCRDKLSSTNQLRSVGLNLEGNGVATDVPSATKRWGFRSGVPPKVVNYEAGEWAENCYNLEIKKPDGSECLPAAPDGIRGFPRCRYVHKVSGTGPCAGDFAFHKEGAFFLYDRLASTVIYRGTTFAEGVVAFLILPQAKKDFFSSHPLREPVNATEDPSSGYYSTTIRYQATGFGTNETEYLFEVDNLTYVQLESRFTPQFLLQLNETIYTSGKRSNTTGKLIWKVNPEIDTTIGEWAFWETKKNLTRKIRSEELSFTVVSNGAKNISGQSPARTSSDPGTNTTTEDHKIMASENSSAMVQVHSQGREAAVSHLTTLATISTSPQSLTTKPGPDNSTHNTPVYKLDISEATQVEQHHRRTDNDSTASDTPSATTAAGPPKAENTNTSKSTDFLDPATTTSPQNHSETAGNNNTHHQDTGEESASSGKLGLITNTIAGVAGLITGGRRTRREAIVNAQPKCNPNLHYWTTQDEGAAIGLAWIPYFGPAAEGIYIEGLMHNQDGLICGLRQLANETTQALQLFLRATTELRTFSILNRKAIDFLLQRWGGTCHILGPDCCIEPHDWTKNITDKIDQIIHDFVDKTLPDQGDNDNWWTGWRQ
The description is as above.

Regarding USAMRIID mAb 13F6 (antibody), the Kd in experiment [1] was found to be 330 pM.

B1: CAN9G1 monoclonal antibody (antibody, V domains shown)
VH: ERQLVESGGGVVKPGESLKLSCAASGFAFSSYDMSWVRQTPEKRLEWVAYSSRGGGFTYYPDTVKGRFTIARDNAKNTLHLQMSSLKSEDTAMYYCATHYYGPLYAMDYWGQGTSVTVSS
VL: QLVLTQSSSASFSLGASAKLTCTLSSQHSTFTIEWYQQQPLKAPKYVMELKKDGSHSTGDGIPDRFSGSSSGADRYLWISNIQPEDEAMYICGVGDTIKEQFVYVFGGGTKVTVL
In the case of B1, the Kd with ZEBOV GP was 270 pM.
